In patent US12467929:

How the values were obtained:
[1] = biological target: recombinant UBE3A protein (Homo sapiens (Human)) (UniProt Q05086); test: 3-step Simoa; capture GTX; UBE3A 1.95 ng/ml
[2] = biological target: recombinant UBE3A protein (Homo sapiens (Human)) (UniProt Q05086); test: 2-step Simoa; capture GTX; UBE3A 7.81 ng/ml
[3] = biological target: recombinant UBE3A protein (Homo sapiens (Human)) (UniProt Q05086); test: Simoa; capture GTX, no helper beads; 3E5 0.4 ug/ml; UBE3A 20.0 ng/ml
[4] = biological target: recombinant UBE3A protein (Homo sapiens (Human)) (UniProt Q05086); test: Simoa; capture GTX; SBG 75 pm; UBE3A 0.160 ng/ml
[5] = biological target: recombinant UBE3A protein (Homo sapiens (Human)) (UniProt Q05086); test: 3-step Simoa, 120 min bead step; capture GTX; UBE3A 4.00 ng/ml
[6] = biological target: recombinant UBE3A protein (Homo sapiens (Human)) (UniProt Q05086); test: Simoa head-to-head, Table 11; capture GTX; UBE3A 0.16 ng/ml
[7] = biological target: recombinant UBE3A protein (Homo sapiens (Human)) (UniProt Q05086); test: Simoa; capture GTX, no helper beads; 3E5 0.1 ug/ml; UBE3A 20.0 ng/ml
[8] = biological target: recombinant UBE3A protein (Homo sapiens (Human)) (UniProt Q05086); test: Simoa head-to-head, Table 10; capture MS 2F6; UBE3A 0.80 ng/ml
[9] = biological target: recombinant UBE3A protein (Homo sapiens (Human)) (UniProt Q05086); test: Simoa; capture GTX; SBG 150 pm; UBE3A 0.00640 ng/ml
[10] = biological target: recombinant UBE3A protein (Homo sapiens (Human)) (UniProt Q05086); test: Simoa head-to-head, Table 11; capture GTX; UBE3A 0.80 ng/ml
[11] = biological target: recombinant UBE3A protein (Homo sapiens (Human)) (UniProt Q05086); test: Simoa head-to-head, Table 11; capture MS 2F6; UBE3A 500 ng/ml
[12] = biological target: recombinant UBE3A protein (Homo sapiens (Human)) (UniProt Q05086); test: Simoa; capture GTX, no helper beads; 3E5 0.4 ug/ml; UBE3A 0.0320 ng/ml
[13] = biological target: recombinant UBE3A protein (Homo sapiens (Human)) (UniProt Q05086); test: Simoa; capture GTX; 3E5 0.2 ug/ml; UBE3A 0.00640 ng/ml
[14] = biological target: recombinant UBE3A protein (Homo sapiens (Human)) (UniProt Q05086); test: Simoa head-to-head, Table 11; capture GTX; UBE3A 500 ng/ml
[15] = biological target: recombinant UBE3A protein (Homo sapiens (Human)) (UniProt Q05086); test: Simoa; capture GTX; 3E5 0.4 ug/ml; UBE3A 20.0 ng/ml
[16] = biological target: recombinant UBE3A protein (Homo sapiens (Human)) (UniProt Q05086); test: Simoa; capture GTX, no helper beads; 3E5 0.1 ug/ml; UBE3A 0.0320 ng/ml
[17] = biological target: recombinant UBE3A protein (Homo sapiens (Human)) (UniProt Q05086); test: Simoa head-to-head, Table 10; capture MS 2F6; UBE3A 500 ng/ml
[18] = biological target: recombinant UBE3A protein (Homo sapiens (Human)) (UniProt Q05086); test: Simoa; capture GTX; 3E5 0.1 ug/ml; UBE3A 0.0320 ng/ml
[19] = biological target: recombinant UBE3A protein (Homo sapiens (Human)) (UniProt Q05086); test: Simoa; capture GTX; SBG 150 pm; UBE3A 0.00128 ng/ml
[20] = biological target: recombinant UBE3A protein (Homo sapiens (Human)) (UniProt Q05086); test: Simoa; capture GTX; 3E5 0.8 ug/ml; UBE3A 0.800 ng/ml

Chain of UniProt Q05086 (Q05086 whole entry): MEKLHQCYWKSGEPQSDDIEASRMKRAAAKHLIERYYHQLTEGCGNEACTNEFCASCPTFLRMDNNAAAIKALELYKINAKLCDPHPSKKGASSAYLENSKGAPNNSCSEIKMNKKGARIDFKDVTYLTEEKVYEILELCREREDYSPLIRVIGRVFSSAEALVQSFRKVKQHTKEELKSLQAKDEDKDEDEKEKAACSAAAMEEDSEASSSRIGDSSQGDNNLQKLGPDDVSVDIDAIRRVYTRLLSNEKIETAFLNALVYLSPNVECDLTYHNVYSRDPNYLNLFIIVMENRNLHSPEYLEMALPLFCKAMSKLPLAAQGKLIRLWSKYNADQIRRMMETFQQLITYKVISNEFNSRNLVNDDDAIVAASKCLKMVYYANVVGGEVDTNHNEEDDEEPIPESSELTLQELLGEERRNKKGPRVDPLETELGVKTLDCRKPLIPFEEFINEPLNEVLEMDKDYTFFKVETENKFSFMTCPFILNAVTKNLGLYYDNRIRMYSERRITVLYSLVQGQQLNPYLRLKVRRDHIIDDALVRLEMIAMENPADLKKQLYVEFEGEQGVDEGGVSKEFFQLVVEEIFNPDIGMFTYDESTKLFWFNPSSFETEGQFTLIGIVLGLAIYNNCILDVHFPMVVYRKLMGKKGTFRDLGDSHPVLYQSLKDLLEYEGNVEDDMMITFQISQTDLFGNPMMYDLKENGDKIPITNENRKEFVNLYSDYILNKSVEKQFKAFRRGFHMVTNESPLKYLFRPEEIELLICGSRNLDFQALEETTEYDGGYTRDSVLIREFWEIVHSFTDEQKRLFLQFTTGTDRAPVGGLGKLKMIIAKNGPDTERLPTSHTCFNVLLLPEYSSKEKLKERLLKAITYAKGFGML

NB500-240 (Novus) (antibody)
AEB1 [1]: 0.0052 | AEB2 [1]: 0.0042 | Ave AEB [1]: 0.0047 | Signal to Background [1]: 1.44 | AEB1 [2]: 0.058 | AEB2 [2]: 0.0481 | Ave AEB [2]: 0.053 | Signal to Background [2]: 16.2

anti-UBE3A antibody 3E5 (SAB1404508-100 ug, Millipore-Sigma)
AEB1 [3]: 6.8 | AEB2 [3]: 6.32 | Average AEB [3]: 6.56 | Signal to Background [3]: 336 | AEB1 [4]: 0.0299 | AEB2 [4]: 0.0294 | AEB3 [4]: 0.03 | Average AEB [4]: 0.0298 | Signal to Background [4]: 6.82 | AEB1 [5]: 0.533 | AEB2 [5]: 0.55 | Ave AEB [5]: 0.542 | Signal to Background [5]: 318 | AEB1 [6]: 0.0288 | AEB2 [6]: 0.0291 | Ave AEB [6]: 0.0289 | Signal to Background [6]: 3.53 | AEB1 [7]: 3.57 | AEB2 [7]: 3.21 | Average AEB [7]: 3.39 | Signal to Background [7]: 592 | AEB1 [8]: 0.0353 | AEB2 [8]: 0.037 | Ave AEB [8]: 0.0361 | Signal to Background [8]: 2.67 | AEB1 [9]: 0.0136 | AEB2 [9]: 0.0149 | AEB3 [9]: 0.014 | Average AEB [9]: 0.0142 | Signal to Background [9]: 1.07 | AEB1 [10]: 0.0916 | AEB2 [10]: 0.0961 | Ave AEB [10]: 0.0939 | Signal to Background [10]: 11.5 | AEB1 [11]: 8.9 | AEB2 [11]: 8.6 | Ave AEB [11]: 8.75 | Signal to Background [11]: 2310 | AEB1 [12]: 0.0366 | AEB2 [12]: 0.037 | Average AEB [12]: 0.0368 | Signal to Background [12]: 1.88 | AEB1 [13]: 0.0421 | AEB2 [13]: 0.0466 | AEB3 [13]: 0.0433 | Average AEB [13]: 0.044 | Signal to Background [13]: 1.12 | AEB1 [14]: 9.97 | AEB2 [14]: 10.3 | Ave AEB [14]: 10.1 | Signal to Background [14]: 1240 | AEB1 [15]: 6.82 | AEB2 [15]: 7.9 | AEB3 [15]: 7.67 | Average AEB [15]: 7.46 | Signal to Background [15]: 119 | AEB1 [16]: 0.0108 | AEB2 [16]: 0.0159 | Average AEB [16]: 0.0133 | Signal to Background [16]: 2.33 | AEB1 [17]: 11 | AEB2 [17]: 10.9 | Ave AEB [17]: 10.9 | Signal to Background [17]: 809 | AEB1 [18]: 0.0351 | AEB2 [18]: 0.04 | AEB3 [18]: 0.0401 | Average AEB [18]: 0.0384 | Signal to Background [18]: 1.99 | AEB1 [19]: 0.013 | AEB2 [19]: 0.018 | AEB3 [19]: 0.0134 | Average AEB [19]: 0.0148 | Signal to Background [19]: 1.12 | AEB1 [20]: 0.589 | AEB2 [20]: 0.605 | AEB3 [20]: 0.615 | Average AEB [20]: 0.603 | Signal to Background [20]: 4.92
